The text below walks through data of patent publication US11976099B2, “Compositions and methods for treatment of bone associated diseases” (THE NATIONAL INSTITUTE FOR BIOTECHNOLOGY IN THE NEGEV LTD., priority 2016, dated 2024).

For this experiment, the system named is murine bone marrow derived monocytes (BMMs) differentiating to osteoclasts. As to the kind of experiment: Osteoclast differentiation assay of murine BMMs (TRAP staining). The experiment is classed as cell-based, mouse. Particulars: for effect on osteoclast differentiation/formation: Example 9, FIG. 13, varying concentrations, five days; for number of osteoclasts and number of nuclei / osteoclast formation: Example 14; for osteoclast formation: 50, 1000 and 5000 nM with M-CSFWT and RANKL. The protocol: Primary cells differentiation assay—Murine primary cells were obtained as described in the murine primary cells section. Cells were washed with PBS and detached using a cell scraper, and 20,000 cells were plated in each well of a 96-well plate. Osteoclast differentiation was induced by culturing the cells in α-MEM containing 10% of fetal bovine serum (FBS), penicillin and streptomycin, […] M-CSF and 20 ng/ul RANKL (R&D Systems, USA). To determine the influence of the M-CSFRGD variants and the M-CSFM on the osteoclasts, the proteins were added to the differentiation medium (with M-CSF and RANKL) in three different concentrations (50 nM, 1 μM and 5 μM). After 72-96 h, once the cells had differentiated fully, they were fixated with 4% paraformaldehyde and stained using the tartrate-resistant acid phosphatase (TRAP) staining kit (Sigma-Aldrich, USA) according to manufacturer's protocol. As a positive control, PBS was used instead of the inhibitors, and negative controls comprised cells incubated in differentiation medium without RANKL and inhibitors. […] Cells in each image were counted in a double-blind manner and the number of nuclei in the osteoclasts and the total osteoclast surface area were determined using ImageJ software. Three repeats were performed for every condition, and each repeat was normalized to the positive control values.
Differentiation assay—BMMs and CD14+ cells were obtained and grown as described above. The plates containing the monocytes were washed with PBS; the cells were detached using a cell scraper for BMMs or Accutase (Biological industries, Israel) for CD14^+; and 2×10^4 BMMs or 1×10^4 CD14^+ cells were transferred to each well in a 96-well plate. Osteoclast differentiation was induced as described in the ‘phosphorylation assay’ section. To determine the influence of M-CSFC31S and the M-CSFC31S,M27R on osteoclast differentiation, the proteins were added to the differentiation medium (with M-CSF and RANKL) in different concentrations (50 nM, 1 μM and 5 μM for BMMs and 50 nM, 250 nM and 1 μM for CD14^+). To determine the influence of human M-CSFWT on the differentiation, it was added to the cells in different concentrations (50 nM 1 μM and 5 μM) without adding murine M-CSFWT. Once the cells were fully differentiated, they were fixed with 4% paraformaldehyde and stained using the tartrate-resistant acid phosphatase (TRAP) staining kit (Sigma-Aldrich, USA) according to the manufacturer's protocol. As the positive control, cells were incubated with M-CSF and RANKL without inhibitors, and the negative control was comprised of cells that were incubated in differentiation medium without RANKL. […] Cells in each image were counted in a double-blind manner, and the number of nuclei in the osteoclasts was determined using ImageJ software. For the positive control of BMMs, an average of 28.33 osteoclasts and 135 nuclei per well were counted. For CD14^+ positive control, the average numbers of osteoclasts and nuclei were 14.5 and 75, respectively, per well. The results for each parameter were normalized to the positive control values.
Murine bone marrow monocytes were purified from the bone marrow of eight- to twelve-week-old mice and were seeded for osteoclast differentiation in the presence of recombinant M-CSF and RANKL for 72-96 h. […] At the end of the differentiation period, osteoclasts were fixed and stained for Tartrate resistant acid phosphatase activity (TRAP). Osteoclast differentiation and spreading were evaluated in terms of three parameters: number of osteoclasts, number of nuclei in osteoclasts and osteoclast surface area.
The positive control contains a differentiation medium with both M-CSF WT and RANKL. The negative control contains only […], which keeps the cells alive though not differentiated. Varying concentrations of M-CSFM and M-CSFM,M27R were added to the cells, that were grown for five days. Then the cells were fixated and stained using TRAP staining for differentiated osteoclasts. […]

Numbering of substitutions follows the chain as printed. Numbers in names are those of the source.

B1: M-CSFM: 158 amino acid M-CSF with cysteine at position 31 replaced by serine (SEQ ID NO: 2) (protein)
chain: EEVSEYCSHMIGSGHLQSLQRLIDSQMETSSQITFEFVDQEQLKDPVCYLKKAFLLVQDIMEDTMRFRDNTPNAIAIVQLQELSLRLKSCFTKDYEEHDKACVRTFYETPLQLLEKVKNVFNETKNLLDKDWNIFSKNCNNSFAECSSQGHERQSEGS
Regarding B1, the “effect on osteoclast differentiation/formation” value is listed as “acts as an inducer for osteoclast differentiation”. In addition, where the note is “BMMs, 5000 nM”, the “number of osteoclasts and nuclei at 5000 nM” value was “reduction in both osteoclasts and nuclei number”. Also, under “Example 8, 50 nM, 1 μM and 5 μM with M-CSF and RANKL, 72-96 h”, the “effect on osteoclast differentiation” value is reported as “markedly enhanced osteoclast differentiation”. Further, under “BMMs”, the “number of osteoclasts and number of nuclei” value was “the opposite result”; the osteoclast formation result is on record as “highly accelerated in the two lower concentrations”.

B2: M-CSFC31S,M27R: M-CSF double mutant containing both C31S and M27R; monomeric, monospecific c-FMS antagonist (protein)
chain: B1 chain with M27R
Regarding B2, the “effect on osteoclast differentiation/formation” value is “inhibits osteoclast formation in a dose dependent manner”. In addition, for the setting “BMMs”, the “number of osteoclasts and number of nuclei” value is “a decrease in both parameters, in a dose-dependent manner”; the osteoclast formation entry is “significantly inhibited, in a dose-dependent manner”.

B3: M-CSFWT: wild-type human M-CSF, disulfide-bond-linked homodimer which binds and activates c-FMS (protein)
chain: B1 chain with S31C
On to B3, for which the “numbers of osteoclasts and their nuclei” value (BMMs, 50, 1000 and 5000 nM without murine M-CSFWT) is “inhibits both the numbers of osteoclasts and their nuclei, in a dose dependent manner”.
